Target: T1, SARS-CoV-2 Omicron BA.1突变株 S蛋白 (Sino Biological，货号:40589-V08B33) (SARS-CoV-2 Omicron BA.1突变株)
T1 construct: also called Omicron BA.1 S蛋白
Experiment: ELISA, S protein coated, antibody titrated from 10 μg/mL

B1: 抗新型冠状病毒SARS-CoV-2的广谱抗体(VSM12-37) (antibody, V domains shown)
VH: EVQLVESGGGLVQPGGSLRLSCAVSGFTVSSNYMSWVRQAPGKGLEWVSLIYSGGSTYYADSVKGRFTVSRDRSKNTLYLQMNSLRAEDTALYYCARDNPRVGSNYWGQGTLVTVSS
VL: DIQMTQSPSSLSASVGDRVTITCQASQDINNYLNWYQQKPGKAPKLLIYDASNLEAGVPSRFSGSGSGTDFTFTISSLQPEDIATYYCQQCDNVPLTFGGGTKVEIKR
notes: also called VSM12-37抗体
**Q.** For B1, which EC50 is on record?
**A.** The EC50 was over 5 µg/mL.
